The values that follow come from patent CN116041520A (WUHAN ABCLONAL CO LTD, dated 2023).

The target of the experiment is T1, 重组Human CD63蛋白(Ala103-Val203) (Human, UniProt P08962 103-203).
T1 construct: Fragment 103-203 of human CD63 expressed in 293F cells from vector pBR322 and purified with imidazole elution; also called 重组CD63蛋白; 重组Human CD63成熟蛋白
T1 sequence: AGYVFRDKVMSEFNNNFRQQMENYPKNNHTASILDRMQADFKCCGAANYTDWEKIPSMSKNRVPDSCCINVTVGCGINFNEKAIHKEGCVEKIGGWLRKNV
Kind of experiment: sandwich ELISA, 3C5 coated as capture antibody at 2 ug/mL, Human CD63 0-10 ng/mL, OD450.

B1: 针对Human CD63的兔单克隆抗体3C5 (antibody, V domains shown)
VH: QEQLVESGGGLVQPEGSLTLTCTASGFTFSTAWMSWVRQAPGKGLEWIGIINTGGTGKTYYASWAKGRFTCSKTSSTTVTLQMTSLTAADTATYFCARETADFNLWGQGTLVTVSS
VL: DVVMTQTPSSTSEPVGGTVTINCQASESVYNNDDLAWLQQKPGQPPKVLIYSASKLASGVPSRFSGSGSGTQFTLTISGVQCDDAASYYCVGLFDGDYFAFGGGTEVVVKG
notes: Coated on the plate as capture antibody at 2 ug/mL; also called 捕获抗体
Consider B1, for which the binding result was “binds”.
